The numbers were not newly measured in publication PMC3535496, which cites them from elsewhere.

A word on the Kd: it is the concentration at which binding is half-saturated.

This series deals with Jun TAD (Homo sapiens) (UniProt P05412).
Chain of UniProt P05412 (P05412 47-89): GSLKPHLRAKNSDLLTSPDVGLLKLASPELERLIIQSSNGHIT

As to CBP KIX (from UniProt Q92793), the Kd was 30 µM.
